Measured values from the supplement of paper PMC10567573.

B1: ZNF263 (parent)
chain: CSECGESFSRSSRLMSHQRTHTG

Variants of: B1
Assay: protein stability index of a GFP-peptide fusion (GPS, HEK-293T) (PSI 1-6); higher = more stable
Conditions: c terminus: native
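Also: lentivirally expressed fusions sorted by FACS into six bins by GFP to DsRed ratio, PSI derived from sequencing read proportions per bin multiplied by bin number.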

Point of comparison: CFECGESFSRSSRLMSHQRTHTG, protein stability index 1.91. Against it:
- CSECGESFDRSSRLMSHQRTHTG — higher, 4.09
- CSECGESFCRSSRLMSHQRTHTG — higher, 2.35
- CSECGESFERSSRLMSHQRTHTG — higher, 3.67
- CSECGESFWRSSRLMSHQRTHTG — higher, 2.84
- CSECGESFVRSSRLMSHQRTHTG — higher, 2.42
- CSECGESFNRSSRLMSHQRTHTG — higher, 2.67
- CSECGESFARSSRLMSHQRTHTG — higher, 2.54
- CSECGESFHRSSRLMSHQRTHTG — higher, 2.99
- CSECGESFRRSSRLMSHQRTHTG — higher, 2.37
- CSECGESFFRSSRLMSHQRTHTG — higher, 2.58
- CSECGESFKRSSRLMSHQRTHTG — higher, 2.23
- CSECGESFTRSSRLMSHQRTHTG — higher, 2.98
- CSECGESFQRSSRLMSHQRTHTG — higher, 1.94
- CSECGESFMRSSRLMSHQRTHTG — higher, 2.68
- CSECGESFPRSSRLMSHQRTHTG — lower, 1.74
- CSECGESFGRSSRLMSHQRTHTG — higher, 2.23
- CSECGESFLRSSRLMSHQRTHTG — higher, 2.03
- CSECGESFYRSSRLMSHQRTHTG — higher, 3.1
- CSECGESFIRSSRLMSHQRTHTG — higher, 2.4
- CSEFGESFSRSSRLMSHQRTHTG — lower, 1.24
- CSEKGESFSRSSRLMSHQRTHTG — lower, 1.42
- CSEAGESFSRSSRLMSHQRTHTG — lower, 1.56
- CSEHGESFSRSSRLMSHQRTHTG — lower, 1.4
- CSEQGESFSRSSRLMSHQRTHTG — lower, 1.53
- CSEIGESFSRSSRLMSHQRTHTG — lower, 1.74
- CSELGESFSRSSRLMSHQRTHTG — lower, 1.81
- CSEMGESFSRSSRLMSHQRTHTG — lower, 1.85
- CSEEGESFSRSSRLMSHQRTHTG — lower, 1.8
- CSEVGESFSRSSRLMSHQRTHTG — higher, 2.12
- CSEGGESFSRSSRLMSHQRTHTG — lower, 1.82
- CSENGESFSRSSRLMSHQRTHTG — higher, 2.11
- CSEDGESFSRSSRLMSHQRTHTG — higher, 2.31
- CSEPGESFSRSSRLMSHQRTHTG — lower, 1.51
- CSETGESFSRSSRLMSHQRTHTG — lower, 1.56
- CSERGESFSRSSRLMSHQRTHTG — lower, 1.15
- ISECGESFSRSSRLMSHQRTHTG — higher, 2.1
- TSECGESFSRSSRLMSHQRTHTG — higher, 2.06
- RSECGESFSRSSRLMSHQRTHTG — higher, 2.32
- FSECGESFSRSSRLMSHQRTHTG — lower, 1.49
- GSECGESFSRSSRLMSHQRTHTG — higher, 2.36
- PSECGESFSRSSRLMSHQRTHTG — higher, 3.14
- QSECGESFSRSSRLMSHQRTHTG — higher, 2.46
- ESECGESFSRSSRLMSHQRTHTG — higher, 3.15
- KSECGESFSRSSRLMSHQRTHTG — higher, 2.05
- DSECGESFSRSSRLMSHQRTHTG — lower, 1.84
- ASECGESFSRSSRLMSHQRTHTG — higher, 2.23
- LSECGESFSRSSRLMSHQRTHTG — lower, 1.75
- MSECGESFSRSSRLMSHQRTHTG — higher, 2.22
- YSECGESFSRSSRLMSHQRTHTG — lower, 1.9
- WSECGESFSRSSRLMSHQRTHTG — lower, 1.56
- VSECGESFSRSSRLMSHQRTHTG — lower, 1.59
- NSECGESFSRSSRLMSHQRTHTG — higher, 2.31
- HSECGESFSRSSRLMSHQRTHTG — higher, 2.11
- SSECGESFSRSSRLMSHQRTHTG — higher, 2.14
- CSECGISFSRSSRLMSHQRTHTG — higher, 2.15
- CSECGDSFSRSSRLMSHQRTHTG — lower, 1.89
- CSECGRSFSRSSRLMSHQRTHTG — higher, 3.9
- CSECGPSFSRSSRLMSHQRTHTG — higher, 1.92
- CSECGFSFSRSSRLMSHQRTHTG — lower, 1.61
- CSECGMSFSRSSRLMSHQRTHTG — higher, 3.42
- CSECGHSFSRSSRLMSHQRTHTG — higher, 2.05
- CSECGYSFSRSSRLMSHQRTHTG — lower, 1.56
- CSECGWSFSRSSRLMSHQRTHTG — higher, 2.02
- CSECGQSFSRSSRLMSHQRTHTG — higher, 2.96
- CSECGSSFSRSSRLMSHQRTHTG — higher, 2.94
- CSECGNSFSRSSRLMSHQRTHTG — lower, 1.73
- CSECGCSFSRSSRLMSHQRTHTG — higher, 2.52
- CSECGVSFSRSSRLMSHQRTHTG — higher, 2.97
- CSECGLSFSRSSRLMSHQRTHTG — higher, 3.22
- CSECGKSFSRSSRLMSHQRTHTG — higher, 3.25
- CSECGASFSRSSRLMSHQRTHTG — higher, 3.66
- CSECGTSFSRSSRLMSHQRTHTG — lower, 1.76
- CSECGECFSRSSRLMSHQRTHTG — higher, 2.67
- CSECGERFSRSSRLMSHQRTHTG — higher, 2.33
- CSECGEHFSRSSRLMSHQRTHTG — higher, 2.58
- CSECGEVFSRSSRLMSHQRTHTG — higher, 4.13
- CSECGETFSRSSRLMSHQRTHTG — higher, 3.69
- CSECGEWFSRSSRLMSHQRTHTG — higher, 3.75
- CSECGEIFSRSSRLMSHQRTHTG — higher, 3.88
- CSECGENFSRSSRLMSHQRTHTG — higher, 2.64
- CSECGEEFSRSSRLMSHQRTHTG — higher, 3.51
- CSECGEGFSRSSRLMSHQRTHTG — higher, 2.35
- CSECGEMFSRSSRLMSHQRTHTG — higher, 3.59
- CSECGEYFSRSSRLMSHQRTHTG — higher, 3.8
- CSECGEKFSRSSRLMSHQRTHTG — higher, 2.72
- CSECGEDFSRSSRLMSHQRTHTG — lower, 1.84
- CSECGELFSRSSRLMSHQRTHTG — higher, 3.6
- CSECGEAFSRSSRLMSHQRTHTG — higher, 2.94
- CSECGEPFSRSSRLMSHQRTHTG — higher, 2.63
- CSECGEQFSRSSRLMSHQRTHTG — higher, 3.41
- CSECGESFSRFSRLMSHQRTHTG — higher, 3.14
- CSECGESFSRPSRLMSHQRTHTG — higher, 4.22
- CSECGESFSRISRLMSHQRTHTG — higher, 3.98
- CSECGESFSRHSRLMSHQRTHTG — higher, 3.47
- CSECGESFSRCSRLMSHQRTHTG — higher, 3.34
- CSECGESFSRNSRLMSHQRTHTG — higher, 2.31
- CSECGESFSRKSRLMSHQRTHTG — higher, 3.55
- CSECGESFSRMSRLMSHQRTHTG — higher, 4.29
- CSECGESFSRASRLMSHQRTHTG — higher, 4.04
- CSECGESFSRDSRLMSHQRTHTG — higher, 2.1
- CSECGESFSRGSRLMSHQRTHTG — higher, 3.13
- CSECGESMSRSSRLMSHQRTHTG — higher, 2.21
- CSECGESNSRSSRLMSHQRTHTG — higher, 1.92
- CSECGESLSRSSRLMSHQRTHTG — lower, 1.37
- CSECGESPSRSSRLMSHQRTHTG — the same, 1.91
- CSECGESISRSSRLMSHQRTHTG — lower, 1.21
- CSECGESRSRSSRLMSHQRTHTG — higher, 2.2
- CSECGESYSRSSRLMSHQRTHTG — higher, 2.39
- CSECGESGSRSSRLMSHQRTHTG — higher, 2.58
- CSECGESWSRSSRLMSHQRTHTG — higher, 3.15
- CSECGESKSRSSRLMSHQRTHTG — higher, 2.14
- CSECGESDSRSSRLMSHQRTHTG — higher, 2.63
- CSECGESHSRSSRLMSHQRTHTG — higher, 2.13
- CSECGESQSRSSRLMSHQRTHTG — higher, 2.16
- CSECGESCSRSSRLMSHQRTHTG — higher, 2
- CSECGESSSRSSRLMSHQRTHTG — higher, 2.11
- CSECGESESRSSRLMSHQRTHTG — higher, 3.32
- CSECGESTSRSSRLMSHQRTHTG — higher, 2.04
- CSECGESASRSSRLMSHQRTHTG — lower, 1.35
- CQECGESFSRSSRLMSHQRTHTG — higher, 2.84
- CKECGESFSRSSRLMSHQRTHTG — higher, 2.51
- CYECGESFSRSSRLMSHQRTHTG — higher, 2.22
- CGECGESFSRSSRLMSHQRTHTG — higher, 2.86
- CLECGESFSRSSRLMSHQRTHTG — higher, 2.67
- CAECGESFSRSSRLMSHQRTHTG — higher, 2.4
- CHECGESFSRSSRLMSHQRTHTG — higher, 2.35
- CVECGESFSRSSRLMSHQRTHTG — higher, 3.85
- CRECGESFSRSSRLMSHQRTHTG — higher, 2.92
- CIECGESFSRSSRLMSHQRTHTG — higher, 2.77
- CEECGESFSRSSRLMSHQRTHTG — higher, 3.24
- CWECGESFSRSSRLMSHQRTHTG — higher, 2.21
- CDECGESFSRSSRLMSHQRTHTG — higher, 2.99
- CCECGESFSRSSRLMSHQRTHTG — lower, 1.79
- CPECGESFSRSSRLMSHQRTHTG — higher, 4.06
- CTECGESFSRSSRLMSHQRTHTG — higher, 2.54
- CNECGESFSRSSRLMSHQRTHTG — higher, 2.62
- CMECGESFSRSSRLMSHQRTHTG — higher, 3.38
- CSECGESFSKSSRLMSHQRTHTG — higher, 2.68
- CSECGESFSQSSRLMSHQRTHTG — higher, 3.85
- CSECGESFSMSSRLMSHQRTHTG — higher, 3.62
- CSECGESFSASSRLMSHQRTHTG — higher, 2.98
- CSECGESFSCSSRLMSHQRTHTG — higher, 4.11
- CSECGESFSFSSRLMSHQRTHTG — higher, 2.51
- CSECGESFSPSSRLMSHQRTHTG — higher, 2
- CSECGESFSISSRLMSHQRTHTG — higher, 2.95
- CSECGESFSWSSRLMSHQRTHTG — lower, 1.15
- CSECGESFSLSSRLMSHQRTHTG — higher, 3.71
- CSECGESFSHSSRLMSHQRTHTG — higher, 4.29
- CSECGESFSNSSRLMSHQRTHTG — higher, 4.99
- CSECGESFSVSSRLMSHQRTHTG — higher, 3.48
- CSECGESFSYSSRLMSHQRTHTG — higher, 2.83
- CSECGESFSGSSRLMSHQRTHTG — higher, 2.95
- CSECGESFSESSRLMSHQRTHTG — higher, 5.27
- CSECGESFSSSSRLMSHQRTHTG — higher, 5.28
- CSECGESFSDSSRLMSHQRTHTG — higher, 5.6
- CSECGESFSTSSRLMSHQRTHTG — higher, 5.16
- CSECTESFSRSSRLMSHQRTHTG — higher, 2.3
- CSECAESFSRSSRLMSHQRTHTG — higher, 2.77
- CSECYESFSRSSRLMSHQRTHTG — higher, 2.33
- CSECDESFSRSSRLMSHQRTHTG — lower, 1.79
- CSECQESFSRSSRLMSHQRTHTG — higher, 2.03
- CSECKESFSRSSRLMSHQRTHTG — lower, 1.29
- CSECCESFSRSSRLMSHQRTHTG — higher, 2.33
- CSECRESFSRSSRLMSHQRTHTG — lower, 1.4
- CSECPESFSRSSRLMSHQRTHTG — lower, 1.89
- CSECNESFSRSSRLMSHQRTHTG — higher, 2.2
- CSECHESFSRSSRLMSHQRTHTG — lower, 1.64
- CSECFESFSRSSRLMSHQRTHTG — higher, 3.91
- CSECVESFSRSSRLMSHQRTHTG — lower, 1.03
- CSECWESFSRSSRLMSHQRTHTG — lower, 1.88
- CSECSESFSRSSRLMSHQRTHTG — lower, 1.69
- CSECEESFSRSSRLMSHQRTHTG — lower, 1.41
- CSECLESFSRSSRLMSHQRTHTG — higher, 1.92
- CSECIESFSRSSRLMSHQRTHTG — higher, 2.23
- CSNCGESFSRSSRLMSHQRTHTG — higher, 2.58
- CSKCGESFSRSSRLMSHQRTHTG — higher, 2.68
- CSTCGESFSRSSRLMSHQRTHTG — higher, 3.74
- CSQCGESFSRSSRLMSHQRTHTG — higher, 3.33
- CSICGESFSRSSRLMSHQRTHTG — higher, 4.09
- CSWCGESFSRSSRLMSHQRTHTG — higher, 3.35
- CSGCGESFSRSSRLMSHQRTHTG — lower, 1.71
- CSCCGESFSRSSRLMSHQRTHTG — lower, 1.8
- CSSCGESFSRSSRLMSHQRTHTG — lower, 1.87
- CSPCGESFSRSSRLMSHQRTHTG — lower, 1.33
- CSRCGESFSRSSRLMSHQRTHTG — higher, 2.12
- CSHCGESFSRSSRLMSHQRTHTG — higher, 2.56
- CSYCGESFSRSSRLMSHQRTHTG — higher, 3.54
- CSVCGESFSRSSRLMSHQRTHTG — higher, 4.21
- CSDCGESFSRSSRLMSHQRTHTG — higher, 2.67
- CSMCGESFSRSSRLMSHQRTHTG — higher, 2.26
- CSLCGESFSRSSRLMSHQRTHTG — higher, 2.9
- CSFCGESFSRSSRLMSHQRTHTG — higher, 3.31
- CSACGESFSRSSRLMSHQRTHTG — higher, 2.37
